Test results from publication doi:10.1101/2022.04.07.487468.
Like-named read-outs stand apart in the source and are kept apart here.

What was measured:
[1] = target: memGFP (zebrafish | not stated); assay: fluorescence cross-correlation spectroscopy
[2] = target: Ror2-mCherry (not stated (xRor2 or zebrafish Ror2 cDNA cloned)); assay: fluorescence cross-correlation spectroscopy
[3] = target: zfRor2-ΔCRD-mCherry (zebrafish); assay: fluorescence cross-correlation spectroscopy
[4] = target: Ror2-mCherry (not stated (xRor2 or zebrafish Ror2 cDNA cloned)); assay: fluorescence cross-correlation spectroscopy; remark: listed apart in the source
[5] = target: Ror2-mCherry (not stated (xRor2 or zebrafish Ror2 cDNA cloned)); assay: fluorescence cross-correlation spectroscopy; remark: listed apart in the source
[6] = target: mCherry-xRor2 (not stated (prefix x in xRor2; Xenopus from memory)); assay: FRET or BRET

Row | Kd [1] [nM] | Kd [2] [nM] | Kd [3] [nM] | Kd [4] [nM] | Kd [5] [nM] | FRET efficiency [6] [%] | Molecule
1 | > 9300 | – | – | – | – | – | cytosolic mCherry
2 | – | 311 to 476 | > 6680 | 450 | 3560 | 11.3 to 13 | zfWnt5b-GFP (ligand) QLLVVANSWWSLAMNPIQRPEMYIIGAQPLCSQLTGLSQGQRKLCQLYQDHMVYIGEGAKTGIKECQYQFRQRRWNCSTVDNTSVFGRVMHIGSRETAFTYAVSAAGVVNAVSRACREGELSTCGCSRAARPRDLPRDWLWGGCGDNVNYGYRFAREFVDAREREKNYPRGSVEHARTLMNLQNNEAGRMAVYNLANVACKCHGVSGSCSLKTCWLQLADFRRVGEFLKEKYDSAAAMRINRRGKLELVNNRFNPPTGEDLVYIDPSPDYCLRNETTGSLGTQGRLCNKTSEGMDGCELMCCGRGYDQFKTYKHERCHCKFHWCCYVKCKRCTSLVDQFVCK
